Measured values from patent US20250026844A1.
“And” between values parts separate entries of the source, which are not always exact repeats. Equal values may be shown once.

Assays:
[1] = target: human BCMA-His protein (human) (UniProt Q02223); assay: ELISA, coated human BCMA-His, antibody 0.01 nM
[2] = target: human BCMA on cells (human) (UniProt Q02223); assay: FACS, Flp-in CHO-human BCMA cells
[3] = target: human BCMA-His protein (human) (UniProt Q02223); assay: ELISA, coated human BCMA-His, antibody 1 nM
[4] = target: human BCMA on cells (human) (UniProt Q02223); assay: FACS, U266 cells
[5] = target: human BCMA on cells (human) (UniProt Q02223); assay: FACS, H929 cells
[6] = target: human BCMA on cells (human) (UniProt Q02223); assay: FACS, U266 cells; remark: listed apart in the source
[7] = target: human BCMA-His protein (human) (UniProt Q02223); assay: ELISA, coated human BCMA-His, antibody 0.0001 nM
[8] = target: human BCMA on cells (human) (UniProt Q02223); assay: FACS, U266 cells; remark: listed apart in the source
[9] = target: monkey BCMA-His protein (monkey); assay: ELISA, coated monkey BCMA-His, antibody 10 nM
[10] = target: monkey BCMA-His protein (monkey); assay: ELISA, coated monkey BCMA-His, antibody 0.001 nM
[11] = target: human BCMA on cells (human) (UniProt Q02223); assay: FACS, H929 cells; remark: listed apart in the source
[12] = target: human BCMA on cells (human) (UniProt Q02223); assay: FACS, H929 cells; remark: listed apart in the source
[13] = target: monkey BCMA-His protein (monkey); assay: ELISA, coated monkey BCMA-His, antibody 0.0001 nM
[14] = target: human BCMA on cells (human) (UniProt Q02223); assay: FACS, H929 cells; remark: listed apart in the source
[15] = target: human BCMA-His protein (human) (UniProt Q02223); assay: ELISA, coated human BCMA-His, antibody 0.1 nM
[16] = target: monkey BCMA on Flp-inCHO cells (monkey); assay: FACS, Flp-in CHO-monkey BCMA cells
[17] = target: monkey BCMA-His protein (monkey); assay: ELISA, coated monkey BCMA-His, antibody 0.01 nM
[18] = target: monkey BCMA-His protein (monkey); assay: ELISA, coated monkey BCMA-His, antibody 100 nM
[19] = target: human BCMA-His protein (human) (UniProt Q02223); assay: ELISA, coated human BCMA-His, antibody 0.001 nM
[20] = target: human BCMA on cells (human) (UniProt Q02223); assay: FACS, U266 cells; remark: listed apart in the source
[21] = target: human BCMA-His protein (human) (UniProt Q02223); assay: ELISA, coated human BCMA-His, antibody 100 nM
[22] = target: monkey BCMA-His protein (monkey); assay: ELISA, coated monkey BCMA-His, antibody 1 nM
[23] = target: monkey BCMA-His protein (monkey); assay: ELISA, coated monkey BCMA-His, antibody 0.1 nM
[24] = target: human BCMA-His protein (human) (UniProt Q02223); assay: ELISA, coated human BCMA-His, antibody 10 nM

human BCMA on cells (human), sequence (Q02223 whole entry): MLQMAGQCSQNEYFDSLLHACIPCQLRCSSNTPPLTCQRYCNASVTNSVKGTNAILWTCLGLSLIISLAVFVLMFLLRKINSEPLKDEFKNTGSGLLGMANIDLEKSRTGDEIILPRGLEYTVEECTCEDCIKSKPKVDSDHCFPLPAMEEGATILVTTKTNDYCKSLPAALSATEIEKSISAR
monkey BCMA-His protein (monkey), sequence (A0A2K5 entry or part of it limits assumed): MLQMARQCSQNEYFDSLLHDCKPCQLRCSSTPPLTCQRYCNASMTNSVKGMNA
human BCMA-His protein (human), sequence (Q02223 1-54 limits assumed): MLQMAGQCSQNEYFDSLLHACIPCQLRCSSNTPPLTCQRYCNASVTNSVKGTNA

anti-hel-hlgG1 (negative control antibody against hen egg lysozyme)
OD450 nm [1]: 0.05 OD450 nm
Cell mean fluorescence density [2]: 54.6 MFI
OD450 nm [3]: 0.05 OD450 nm
Maximum mean fluorescence intensity [4]: 103 MFI
Maximum mean fluorescence intensity [5]: 110 MFI
Maximum mean fluorescence intensity [6]: 108 MFI and 111 MFI and 119 MFI
OD450 nm [7]: 0.05 OD450 nm
Maximum mean fluorescence intensity [8]: 124 MFI
OD450 nm [9]: 0.06 OD450 nm
OD450 nm [10]: 0.05 OD450 nm
Maximum mean fluorescence intensity [11]: 93 MFI
Maximum mean fluorescence intensity [12]: 99 MFI and 91 MFI and 167 MFI
OD450 nm [13]: 0.05 OD450 nm
Maximum mean fluorescence intensity [14]: 121 MFI
OD450 nm [15]: 0.05 OD450 nm
Cell mean fluorescence density [16]: 49 MFI
OD450 nm [17]: 0.04 OD450 nm
OD450 nm [18]: 0.1 OD450 nm
OD450 nm [19]: 0.05 OD450 nm
Maximum mean fluorescence intensity [20]: 149 MFI
OD450 nm [21]: 0.12 OD450 nm
OD450 nm [22]: 0.05 OD450 nm
OD450 nm [23]: 0.05 OD450 nm
OD450 nm [24]: 0.07 OD450 nm
